Patent publication US20050175608A1 (Kyowa Kirin, published 2005)

Target: T1, BSA-compound 1 (conjugate of the human FGF-8 partial peptide compound 1 with bovine serum albumin) (human, not fully specified; C-terminal cysteine conjugated to BSA through SMCC)
T1 construct: Coated on ELISA plates; the BSA carrier is not written as a chain
T1 peptide: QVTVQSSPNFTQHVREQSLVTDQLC
Experiment: ELISA, plate coated with BSA-compound 1; positive control
Description: The above-prepared BSA-compound 1 solution was dispensed at a 96-well ELISA plate (manufactured by Greiner) at a concentration of from 0.5 to 1.0 μg/mL in an amount of 50 μL/well, and allowed to stand overnight at 4° C. for adsorption. After washing with PBS, 1% BSA-containing PBS (hereinafter referred to as BSA-PBS) was added in an amount of 100 μL/well and reacted at room temperature for 1 hour to block a remaining active group. After washing each well with 0.05% Tween-containing PBS (hereinafter referred to as Tween-PBS), the culture supernatant or the purified antibody of the tranformants was added in an amount of 50 μL/well, and the reaction was conducted at room temperature for 1 hour. After the reaction, each well was washed with Tween-PBS, a peroxidase-labeled goat anti-human IgG (H & L) antibody solution (manufactured by American Qualex) diluted 3,000 to 6,000 times with BSA-PBS was added as a second antibody solution in an amount of 50 μL/well. The reaction was performed at room temperature for 1 hour. […] Then, absorbance was measured at 415 nm.

binding result: binds
B1: anti-FGF-8 neutralizing chimeric antibody KM3334 (antibody, V domains shown)
VH: QVQLQQSGAEVARPGASVKLSCKASGYTFTDYYLNWVKQRSGQGLEWIGEIDPGSDSIYYNENLEGRATLTADKSSSTAYMQLNSLTSEDSAVYFCARYGYSRYDVRFVYWGQGTLVTVST
VL: DVLMTQTPLSLPVSLGDQASISCRSSQSLVHSNGRTYLEWYLQKPGQSPKVLIYKVSNRISGVPDRFSGSGSGTDFTLKISRVEAEDLGVYFCFQGSHVPYTFGGGTKLEIK
notes: expressed in YB2/0 cells; also called human chimeric antibody KM3334
